Measurements taken from patent US20110014669A1, “Production of 1,4 Butanediol in a Microorganism” (Microbia, Inc., priority 2009, published 2011).

Tests used:
Parameters in all cases: key: +: measureable activity detected in the assay; −: no measurable activity detected in the assay
[1] = system: 5-hydroxy-L-norvaline; assay: Enzyme assay, aminotransferase (step A4), cell lysates; assay type: biochemical; details: BDO biosynthetic pathway step A4
Method: (§1) Enzyme expression and crude lysate preparation. The enzymatic activity of each candidate enzyme is evaluated, first in E. coli and subsequently in C. glutamicum. It will be apparent to one of skill in the art that the expression and lysate preparations may need to be modified depending on the host cell and recombinant gene of interest.
(§2) E. coli: E. coli strains transformed with expression clones, for example, pUC18 or MB4124 based clones having a medium strong constitutive promoter regulating the recombinant gene of interest, are grown aerobically in LB medium (Difco) containing the appropriate antibiotic(s). At an OD600 of 0.5, IPTG is added to a final concentration of 0.25 mM. The cultures are grown to a final OD600 of 1.5 at which time the cells are collected and harvested by centrifugation. Cell pellets are resuspended in BugBuster (Novagen) reagent containing benzonase and lysozyme. Alternatively, E. coli strains transformed with expression clones, are grown overnight aerobically at 37° C. in BHI containing the appropriate antibiotic(s). 300 μL of fresh overnight culture is used to inoculate 2.7 mL BHI containing 0.25 mM IPTG and the appropriate antibiotic. The cultures are grown aerobically for 4-5 hours at 37° C. at which time the cells are collected and harvested by centrifugation. Cell pellets are frozen at −80° C. for at least 15 minutes, then thawed and resuspended in BugBuster (Novagen) reagent. Lysis and lysate collection are performed according to the manufacturer's instructions and, for example, may involve use of a sonicator and/or French press. Cleared lysates are stored on ice until enzyme assays are performed.
C. glutamicum: C. glutamicum strains transformed with MB4124 expression clones containing the recombinant gene of interest are grown aerobically in BHI broth supplemented with the proper antibiotic(s). At an OD600 of 0.5, IPTG is added to a final concentration of 0.25 mM. The cultures are grown to a final OD600 of 1.5 at which time the cells are collected and harvested by centrifugation. The pellet is washed once in one volume of water and resuspended in lysis buffer (1.0 ml 1.0 M HEPES buffer, pH 7.5, 0.5 ml 1M KOH, 10 μl 0.5M EDTA, protease inhibitor cocktail, water to 5 ml; the final pH will vary depending on the individual enzyme being tested) and one volume of 0.1 mm acid washed glass beads. The mixture is repeatedly alternately vortexed and held on ice for 15 seconds, eight times. After centrifugation for 5 min at 4,000 rpm, the supernatant lysate is removed and respun for 20 min at 10,000 rpm. Alternatively, C. glutamicum strains transformed with MB4124 expression clones containing the recombinant gene of interest are grown aerobically overnight in BHI broth supplemented with the proper antibiotic(s). Five mL of fresh overnight culture is used to inoculate 200 mL BHI containing 0.25 mM IPTG and the appropriate antibiotic. The cultures are grown aerobically at 30° C. for 5-7 hours at which time the cells are collected and harvested by centrifugation at 4° C. The pellet is resuspended in 15 mL ice cold 39 mM KH2PO4, 61 mM K2HPO4, 0.5 M KCl and lysed using a BioSpec BeadBeater and following the manufacturer's instructions. […]
Protein Assays. Protein concentrations in lysates are determined according to the methods of Bradford et al. (Anal. Biochem. 72:248-254 [1976]) or by the method of Smith et al. (Anal. Biochem. 150(1):76-85 [1985]) and lysates are assayed according to the methods below. […]

[2] = system: 5-hydroxy-2-oxopentanoate; assay: Enzyme assay, decarboxylase (step A5), aldehyde dehydrogenase linked reaction; assay type: biochemical; details: BDO biosynthetic pathway step A5
Method: as §1, §2
C. glutamicum: C. glutamicum strains transformed with MB4124 expression clones containing the recombinant gene of interest are grown aerobically in BHI broth supplemented with the proper antibiotic(s). At an OD600 of 0.5, IPTG is added to a final concentration of 0.25 mM. The cultures are grown to a final OD600 of 1.5 at which time the cells are collected and harvested by centrifugation. The pellet is washed once in one volume of water and resuspended in lysis buffer (1.0 ml 1.0 M HEPES buffer, pH 7.5, 0.5 ml 1M KOH, 10 μl 0.5M EDTA, protease inhibitor cocktail, water to 5 ml; the final pH will vary depending on the individual enzyme being tested) and one volume of 0.1 mm acid washed glass beads. The mixture is repeatedly alternately vortexed and held on ice for 15 seconds, eight times. After centrifugation for 5 min at 4,000 rpm, the supernatant lysate is removed and respun for 20 min at 10,000 rpm. Alternatively, C. glutamicum strains transformed with MB4124 expression clones containing the recombinant gene of interest are grown aerobically overnight in BHI broth supplemented with the proper antibiotic(s). Five mL of fresh overnight culture is used to inoculate 200 mL BHI containing 0.25 mM IPTG and the appropriate antibiotic. The cultures are grown aerobically at 30° C. for 5-7 hours at which time the cells are collected and harvested by centrifugation at 4° C. The pellet is resuspended in 15 mL ice cold 39 mM KH2PO4, 61 mM K2HPO4, 0.5 M KCl and lysed using a BioSpec BeadBeater and following the manufacturer's instructions. The lysate is centrifuged at 16,000 RPM at 4° C. for 30 minutes and the supernatant retained on ice as the extract.
Protein Assays. Protein concentrations in lysates are determined according to the methods of Bradford et al. (Anal. Biochem. 72:248-254 [1976]) or by the method of Smith et al. (Anal. Biochem. 150(1):76-85 [1985]) and lysates are assayed according to the methods below.
Enzyme Assays. Enzyme assays are performed on the cell lysates prepared above. The activity for each recombinant enzyme is compared to a lysate from a vector only control culture which is generated in a fashion identical to the recombinant enzyme lysate. […]

[3] = system: 5-hydroxy-2-oxopentanoate; assay: In vitro substrate conversion assay, step A5; assay type: biochemical; details: BDO biosynthetic pathway step A5
Method: In Vitro Substrate Conversion. Most of the enzyme assays described above are based on recording changes in absorbance at a given wavelength. In addition to such spectrophotometric readouts, these assays can also be analyzed by more direct methods using an endpoint assay where the reaction is terminated after a given period of time and the mixture is analyzed via HPLC or LC-MS methods.
(§3) The aldehyde dehydrogenase linked reaction was used for step A5.

[4] = system: 5-hydroxy-2-oxopentanoate; assay: Bioconversion (feeding) assay, step A5; assay type: cell-based; details: BDO biosynthetic pathway step A5
Method: Bioconversion assays. The activity of a candidate enzyme towards a given substrate can also be evaluated in vivo using a simple feeding assay. A strain expressing the candidate enzyme is grown in the presence of the substrate for which activity is desired. Samples of the culture are removed periodically and the cells are removed via centrifugation. The culture supernatant is then analyzed (e.g., by LC-MS) to determine how much of the substrate has been removed and how much of a given product is present.
as §3

Molecule	Enzyme Assay [1]	Enzyme Assay [2]	In Vitro Substrate Conversion Assay [3]	Bioconversion Assay [4]
IlvECg: Enzyme candidate for BDO biosynthetic pathway step A4, SEQ ID NO. 28 (protein, listed as Corynebacterium glutamicum) MYLSGSRCTLKSMTSLEFTVTRTENPTSPDRLKEILAAPKFGKFFTDHMVTIDWNESEGWHNAQLVPYAPIPMDPATTVFHYGQAIFEGIKAYRHSDETIKTFRPDENAERMQRSAARMAMPQLPTEDFIKALELLVDADQDWVPEYGGEASLYLRPFMISTEIGLGVSPADAYKFLVIASPVGAYFTGGIKPVSVWLSEDYVRAAPGGTGDAKFAGNYAASLLAQSQAAEKGCDQVVWLDAIEHKYIEEMGGMNLGFIYRNGDQVKLVTPELSGSLLPGITRKSLLQVARDLGYEVEERKITTTEWEEDAKSGAMTEAFACGTAAVITPVGTVKSAHGTFEVNNNEVGEITMKLRETLTGIQQGNVEDQNGWLYPLVG	−			
BioACg: Enzyme candidate for BDO biosynthetic pathway step A4, SEQ ID NO. 29 (protein, listed as Corynebacterium glutamicum) MENPSLRELDHRNIWHPYAAPGVRNRLVTKTDGVFLTLEDGSTVIDAMSSWWSAIHGHGHPRLKAAAQKQIDTMSHVMFGGLTHEPAIKLTHKLLNLTGNSFDHVFYSDSGSVSVEVAIKMALQASKGQGHPERTKLLTWRSGYHGDTFTAMSVCDPENGMHSLWKGTLPEQIFAPAPPVRGSSPQAISEYLRSMELLIDETVSAIIIEPIVQGAGGMRFHDVALIEGVATLCKKHDRFLIVDEIATGFGRTGELFATLSNGLQPDIMCVGKALTGGFMSFAATLCTDKVAQLISTPNGGGALMHGPTFMANPLACAVSHASLEIIETGMWQKQVKRIEAELIAGLSPLQHLPGVADVRVLGAIGVIEMEQNVNVEEATQAALDHGVWIRPFGRLLYVMPPYITTSEQCAQICTALHAAVKGK	−			
BATlY1: Enzyme candidate for BDO biosynthetic pathway step A4, SEQ ID NO. 31 (protein, listed as Yarrowia lipolytica) MLRNNLRSLSRAFSTSSMRLGAGMDASKLQITKTKSPKEKQAPKDLIFGHTFTDHMLTVEWTAKDGWAAPQITPYGPLELDPSAVVLHYAFECFEGLKAYKDESGNVRLFRVDKNMHRMNTSAERICLPEFDGAEAAKLIGQLAKLDSAWIPEGRGYSMYLRPSLIGTTAALGVGTPDKALFYVIASPVGPYYPTGFKAVKLEATDYAVRAWPGGVGNKKLGANYAPCIKPQQQAASRGYQQNLWLFGDEGNITEVGTMNAFFVFERNGKKELVTAPLDGTILEGVTRDSILELARERLPSADWIVSERYCTIKEVAEAAEKGELVEAFGAGTAAVVSPIKEIGWGEKTINIPLQPGKEAGKLTETVNEWIGDIQYGKDEYKGWSKVV	−			
BcaTLp: Enzyme candidate for BDO biosynthetic pathway step A4, SEQ ID NO. 34 (protein, listed as Lactobacillus plantarum) MADVQLDWNNLGFEYRNLPYRYRAYWKDGAWYKKELTGDATLHISEGSTALHYGQQDFEGLKAYRTKDGSVQLFRPDRNAARMQTSCERLLMPQVPTDMFVDAVKQVVKANQDYVPPYGTGATLYLRPLMIGVGGNIGVHPAQEYIFTVFAMPVGSYFKGGMTPTNFTTSEYDRAAHKGTGAYKVGGNYAASLFPGQEAHANGFSDCVYLDPVEHRKIEEVGSANFFGITKDGTFVTPKSPSILPAVTKYSLLYLAEHKFGMKTEQGDVYIDDLDRFAEAGACGTAAVISPIGGLEHQGKLHVFYSETEVGPVTKKLYDELTGIQFGDREAPEGWVQKVELD	−			
PdcZm: Enzyme candidate for BDO biosynthetic pathway step A5, SEQ ID NO. 38 (protein, listed as Zymomonas mobilis) MSYTVGTYLAERLVQIGLKHHFAVAGDYNLVLLDNLLLNKNMEQVYCCNELNCGFSAEGYARAKGAAAAVVTYSVGALSAFDAIGGAYAENLPVILISGAPNNNDHAAGHVLHHALGKTDYHYQLEMAKNITAAAEAIYTPEEAPAKIDHVIKTALREKKPVYLEIACNIASMPCAAPGPASALFNDEASDEASLNAAVEETLKFIANRDKVAVLVGSKLRAAGAEEAAVKFADALGGAVATMAAAKSFFPEENPHYIGTSWGEVSYPGVEKTMKEADAVIALAPVFNDYSTTGWTDIPDPKKLVLAEPRSVVVNGIRFPSVHLKDYLTRLAQKVSKKTGALDFFKSLNAGELKKAAPADPSAPLVNAEIARQVEALLTPNTTVIAETGDSWFNAQRMKLPNGARVEYEMQWGHIGWSVPAAFGYAVGAPERRNILMVGDGSFQLTAQEVAQMVRLKLPVIIFLINNYGYTIEVMIHDGPYNNIKNWDYAGLMEVFNGNGGYDSGAGKGLKAKTGGELAEAIKVALANTDGPTLIECFIGREDCTEELVKWGKRVAAANSRKPVNKLL		−	−	−
PdcSs: Enzyme candidate for BDO biosynthetic pathway step A5, SEQ ID NO. 41 (protein, listed as Staphylococcus saprophyticus) MKKRVGQYLMDCISDVGVDKVFGVPGDFNLTFLDDIISRDDMEWIGNTNELNASYAADGYARMKGIAAMVTTFGVGELSAVNGIAGSYAERVPVIQITGAPTRAVESAGKYVHHSLGEGNFDDYRNMYASITTAQAYITPENAQSEIPRVINAALYEKRPVHIHLPIDVANSEIDVATPFEIEQRPQTDVTKYMTMVKDKLQSADKPVIITGHEINSFKLHEKLEQFVKQSQIPVVQLSLGKGAFNETSPYYMGIYDASLAEEDIRNYVDQSDAILNIGAKLTDSATAGYSYQFDIDDVVMINHHHFKMNETKDTEVSLVDLLDGLNAINYVNNAEFPKFKQPKAHDYDLTDEPLTQETYFKMMQDFIREEDVILAEQGTSFFGAYDLALKHNNKFIGQPLWGSIGYTLPATLGTQMADTSRRNLLLIGDGSLQLTVQEISTMIREKIKPIIFVINNDGYTVERKIHGENAMYNDIKMWDYKLLPTVFGGKDEVQVHDVNTSEAFQKVLLQIEAQPDTMHFIEVKMGVHDAPHKLNAIGQAFAKQNG		−	−	−
PdcBc: Enzyme candidate for BDO biosynthetic pathway step A5, SEQ ID NO. 42 (protein, listed as Bacillus cereus) MKKQYTVSTYLLDRLHELGIEHIFGVPGDYNLAFLDDVVAHENLKWIGNCNELNAAYAADGYARIKGIAALITTFGVGELSAINGIAGSYAENVPVIKITGTPPTKVMENGAIVHHTLGDGKFDHFSNMYREITVAQTNVTPEHAAEEIDRVLRACWNEKRPVHINLPIDVYNKPINKPTEPIINKPILSNKEALNKMLLHAISKINSAKKPVILADFEVDRFHAKENLHQFVEKTGFPIATLSMGKGIFPEKHPQFIGIYTGDVSSPYLRKRIDESDCIISIGVKLTDTITGGFTQGFTKEQVIEIHPYTVKIIDKKYGPVVMQDVLQHLSDSIEHRNKDTLDVKPFILESSPFTEEFIPKAQMVTQKRFWQQMYHFLQENDVLIVEQGTPFFGSSAIPLPNNTAYVGQPLWGSIGYTLPALLGTQLANLSRRNILIIGDGSFQVTAQELSTILRQNLKPIIFLINNNGYTVERAIHGQNQLYNDIQMWDYNKLSMVFGAEEKSLTFKVENEAELAAVLTNITFNKNQLIFIEVIMSQSDQPELLAKLGKRSGQQNS		−	−	−
